The experiment has as its target S. lophii 70 S ribosome (Spraguea lophii (endogenous in spores)). The experiment can be described thus: cryo-EM structure.

Consider one substance from paper doi:10.1101/2022.04.29.490036.

Consider S. lophii 70 S ribosome (complex), for which the percent of particles in the monomeric class is 1.6% and the stoichiometry N – broadly, the number of molecules, sites or subunits per partner or assembly – worked out at 2.
